Measured values published in publication PMC4705668.

Molecular target: 111p (modern human L1Pa1 ORF1p) (Homo sapiens, UniProt Q9UN81 1-338)
Experiment: filter binding; 0.05 M NaCl, 37 C; the three proteins indistinguishable; Filter binding: 20 mM Tris, 10% glycerol, 0.5 mM MgCl2, 0.1 mM DTT, 100 ug/ml BSA, 0.05 M NaCl, 37 C 1 h, 0.1 nM DNA; cross-linking: 20 mM Hepes pH 7.5, 10% gly

Sequence of 111p (modern human L1Pa1 ORF1p) (Q9UN81 whole entry): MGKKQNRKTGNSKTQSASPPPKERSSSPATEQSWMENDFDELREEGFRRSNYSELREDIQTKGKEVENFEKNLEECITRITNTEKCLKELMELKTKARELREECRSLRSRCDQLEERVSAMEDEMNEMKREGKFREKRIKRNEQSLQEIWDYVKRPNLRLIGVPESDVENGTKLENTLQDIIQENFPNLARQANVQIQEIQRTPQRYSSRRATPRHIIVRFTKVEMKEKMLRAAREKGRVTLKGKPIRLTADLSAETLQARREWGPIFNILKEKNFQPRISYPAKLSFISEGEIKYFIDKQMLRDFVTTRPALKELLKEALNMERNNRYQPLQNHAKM

B1: mismatched duplex d29 / d29_c-mm (dsDNA)
DNA 1: AAAAAGTACACAGTCTAACATCAACTCGC
DNA 2: GCGAGTTGACGTCAGACCGTGCACTTTTT
Does B1 bind?
Result: binds
